According to patent US20230144436A1, “MUSCLE TARGETING COMPLEXES AND USES THEREOF FOR TREATING MYOTONIC DYSTROPHY” (Dyne Therapeutics, Inc., priority 2020, published 2023):
pKd: −log10 of the molar value.

Target: human transferrin receptor 1 (human) (UniProt P02786)
Test: Carterra LSA SPR array, IgG captured on anti-IgG lawn, hTfR1 as analyte, 25 C, 1:1 Langmuir fit

human transferrin receptor 1 (human), sequence (P02786 89-760 limits assumed): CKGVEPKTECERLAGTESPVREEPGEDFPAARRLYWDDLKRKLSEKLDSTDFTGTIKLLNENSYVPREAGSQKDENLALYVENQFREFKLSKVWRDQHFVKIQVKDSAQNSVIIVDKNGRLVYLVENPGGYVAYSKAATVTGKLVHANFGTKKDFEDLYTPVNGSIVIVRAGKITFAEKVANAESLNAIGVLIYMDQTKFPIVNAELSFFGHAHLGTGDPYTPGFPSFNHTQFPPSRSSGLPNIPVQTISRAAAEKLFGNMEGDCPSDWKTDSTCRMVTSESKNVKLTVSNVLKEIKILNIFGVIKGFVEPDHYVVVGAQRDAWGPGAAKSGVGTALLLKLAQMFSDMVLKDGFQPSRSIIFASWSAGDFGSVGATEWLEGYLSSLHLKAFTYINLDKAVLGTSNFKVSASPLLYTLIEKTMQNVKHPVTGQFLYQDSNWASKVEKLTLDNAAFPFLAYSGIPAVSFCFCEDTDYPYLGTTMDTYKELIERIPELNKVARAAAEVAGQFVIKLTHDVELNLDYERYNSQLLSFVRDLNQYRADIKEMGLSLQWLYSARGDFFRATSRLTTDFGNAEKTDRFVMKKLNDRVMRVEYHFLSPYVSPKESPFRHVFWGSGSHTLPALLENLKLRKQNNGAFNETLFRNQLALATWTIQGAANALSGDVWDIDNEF

- pKd: 9.27
- kon: 774000 M⁻¹ s⁻¹
Substance: OKT9 (antibody)
